# Test results from US20260274985A1 (MYTHIC THERAPEUTICS, published 2026).
# Where a chain is given by its changes, count along the chain named.
# T1: Human TROP2 Protein, His Tag (Acro Biosystems) (human, UniProt P09758 27-274)
# T1 construct: not shown: His tag
# T1 sequence (looked up): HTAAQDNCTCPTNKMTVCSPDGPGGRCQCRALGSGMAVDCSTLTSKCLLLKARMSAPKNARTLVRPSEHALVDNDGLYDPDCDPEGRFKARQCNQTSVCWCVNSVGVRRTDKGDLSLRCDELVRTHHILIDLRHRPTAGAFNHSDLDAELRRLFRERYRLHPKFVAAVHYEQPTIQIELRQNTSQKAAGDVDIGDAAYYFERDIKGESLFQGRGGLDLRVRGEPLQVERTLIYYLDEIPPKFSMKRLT
# T2: Human TROP2 Protein, His Tag (Acro Biosystems) (human, UniProt P09758 27-274)
# T2 construct: Soluble analyte of the Octet assay; also called TACSTD2; not shown: His tag
# T2 sequence (looked up): T1 sequence (looked up)
# B1: MYT12299 (antibody, V domains shown)
# VH: QVQLQQSGSELKKPGASVKVSCKASGYTFTNHGMNWVKQAPGQGLKWMGWINTYTGEPTYTDDFHGRFAFSLDTSVSTAYLQISSLKADDTAVYFCARGGFGSSYWYFDVWGQGSLVTVSS
# VL: DIQLTQSPSSLSASVGDRVSITCKASQDVSIAVAWYQQKPGKAPKLLIYSASYRYTGVPDRFSGSGSGTDFTLTISSLQPEDFAVYYCQQHYITPLTFGAGTKVEIK
# notes: sacituzumab VH 32, 65 -> H
# B2: MYT13225 (antibody, V domains shown)
# VH: B1 VH with H32Y, G33H, H65K
# VL: B1 VL with I93H
# notes: Sacituzumab HC-LC pairing variant; IgG
# B3: MYT12304 (antibody, V domains shown)
# VH: B1 VH with H32Y, G33H, F64H, H65K
# VL: B1 VL
# notes: sacituzumab VH 33, 64 -> H
# B4: MYT12311 (antibody, V domains shown)
# VH: B1 VH with H32Y, Y60H, H65K, G66H
# VL: B1 VL
# notes: sacituzumab VH 60, 66 -> H
# B5: MYT12308 (antibody, V domains shown)
# VH: B1 VH with H32Y, Y60H, D63H, H65K
# VL: B1 VL
# notes: sacituzumab VH 60, 63 -> H
# B6: MYT13207 (antibody, V domains shown)
# VH: B1 VH with H32Y, H65K, G66H
# VL: B1 VL with Q89H
# notes: as for B2
# B7: MYT12324 (antibody, V domains shown)
# VH: B1 VH with H32Y, G33H, Y60H, H65K, G66H
# VL: B1 VL
# notes: sacituzumab VH 33, 60, 66 -> H
# B8: MYT13200 (antibody, V domains shown)
# VH: B1 VH with H65K
# VL: B1 VL with Q89H
# notes: as for B2
# B9: MYT12303 (antibody, V domains shown)
# VH: B1 VH with H32Y, G33H, D63H, H65K
# VL: B1 VL
# notes: sacituzumab VH 33, 63 -> H
# B10: MYT12336 (antibody, V domains shown)
# VH: B1 VH with H32Y, H65K
# VL: B1 VL with S30H, Q89H
# notes: sacituzumab VL 30, 89 -> H
# B11: MYT12316 (antibody, V domains shown)
# VH: B1 VH with H32Y, D63H, F64H, H65K
# VL: B1 VL
# notes: sacituzumab VH 63, 64 -> H
# B12: MYT13224 (antibody, V domains shown)
# VH: B1 VH with H65K
# VL: B1 VL with I93H
# notes: as for B2
# B13: MYT12332 (antibody, V domains shown)
# VH: B1 VH with H32Y, H65K
# VL: B1 VL with S30H, V33H
# notes: sacituzumab VL 30, 33 -> H
# B14: MYT12340 (antibody, V domains shown)
# VH: B1 VH with H32Y, H65K
# VL: B1 VL with V33H, A51H
# notes: sacituzumab VL 33, 51 -> H
# B15: MYT12314 (antibody, V domains shown)
# VH: B1 VH with H32Y, D62H
# VL: B1 VL
# notes: sacituzumab VH 62, 65 -> H
# B16: MYT13188 (antibody, V domains shown)
# VH: B1 VH with H32Y, D63H, H65K
# VL: B1 VL with S52H
# notes: as for B2
# B17: MYT13211 (antibody, V domains shown)
# VH: B1 VH with H32Y, D62H, H65K
# VL: B1 VL with H91A
# notes: as for B2
# B18: MYT13215 (antibody, V domains shown)
# VH: B1 VH with H32Y, H65K, G66H
# VL: B1 VL with H91A
# notes: as for B2
# B19: MYT12341 (antibody, V domains shown)
# VH: B1 VH with H32Y, H65K
# VL: B1 VL with V33H, S52H
# notes: sacituzumab VL 33, 52 -> H
# B20: MYT12326 (antibody, V domains shown)
# VH: B1 VH with H32Y, G33H, F64H, H65K, G66H
# VL: B1 VL
# notes: sacituzumab VH 33, 64, 66 -> H
# B21: MYT13205 (antibody, V domains shown)
# VH: B1 VH with H32Y, F64H, H65K
# VL: B1 VL with Q89H
# notes: as for B2
# B22: MYT12309 (antibody, V domains shown)
# VH: B1 VH with H32Y, Y60H, F64H, H65K
# VL: B1 VL
# notes: sacituzumab VH 60, 64 -> H
# B23: MYT12315 (antibody, V domains shown)
# VH: B1 VH with H32Y, D62H, H65K, G66H
# VL: B1 VL
# notes: sacituzumab VH 62, 66 -> H
# B24: MYT13212 (antibody, V domains shown)
# VH: B1 VH with H32Y, D63H, H65K
# VL: B1 VL with H91A
# notes: as for B2
# B25: MYT13204 (antibody, V domains shown)
# VH: B1 VH with H32Y, D63H, H65K
# VL: B1 VL with Q89H
# notes: as for B2
# B26: MYT13213 (antibody, V domains shown)
# VH: B1 VH with H32Y, F64H, H65K
# VL: B1 VL with H91A
# notes: as for B2
# B27: MYT13186 (antibody, V domains shown)
# VH: B1 VH with H32Y, Y60H, H65K
# VL: B1 VL with S52H
# notes: as for B2
# B28: MYT13189 (antibody, V domains shown)
# VH: B1 VH with H32Y, F64H, H65K
# VL: B1 VL with S52H
# notes: as for B2
# B29: MYT13214 (antibody, V domains shown)
# VH: B1 VH with H32Y
# VL: B1 VL with H91A
# notes: as for B2
# B30: MYT12339 (antibody, V domains shown)
# VH: B1 VH with H32Y, H65K
# VL: B1 VL with S30H, I93H
# notes: sacituzumab VL 30, 93 -> H
# B31: MYT12312 (antibody, V domains shown)
# VH: B1 VH with H32Y, D62H, D63H, H65K
# VL: B1 VL
# notes: sacituzumab VH 62, 63 -> H
# B32: MYT12334 (antibody, V domains shown)
# VH: B1 VH with H32Y, H65K
# VL: B1 VL with S30H, S52H
# notes: sacituzumab VL 30, 52 -> H
# B33: MYT12325 (antibody, V domains shown)
# VH: B1 VH with H32Y, G33H, F64H
# VL: B1 VL
# notes: sacituzumab VH 33, 64, 65 -> H
# B34: MYT12305 (antibody, V domains shown)
# VH: B1 VH with H32Y, G33H
# VL: B1 VL
# notes: sacituzumab VH 33, 65 -> H
# B35: MYT12328 (antibody, V domains shown)
# VH: B1 VH with H32Y, Y60H, F64H
# VL: B1 VL
# notes: sacituzumab VH 60, 64, 65 -> H
# B36: MYT12313 (antibody, V domains shown)
# VH: B1 VH with H32Y, D62H, F64H, H65K
# VL: B1 VL
# notes: sacituzumab VH 62, 64 -> H
# B37: MYT12333 (antibody, V domains shown)
# VH: B1 VH with H32Y, H65K
# VL: B1 VL with S30H, A51H
# notes: sacituzumab VL 30, 51 -> H
# B38: MYT12329 (antibody, V domains shown)
# VH: B1 VH with H32Y, Y60H, F64H, H65K, G66H
# VL: B1 VL
# notes: sacituzumab VH 60, 64, 66 -> H
# B39: MYT12307 (antibody, V domains shown)
# VH: B1 VH with H32Y, Y60H, D62H, H65K
# VL: B1 VL
# notes: sacituzumab VH 60, 62 -> H
# B40: MYT12300 (antibody, V domains shown)
# VH: B1 VH with H65K, G66H
# VL: B1 VL
# notes: sacituzumab VH 32, 66 -> H
# B41: MYT12335 (antibody, V domains shown)
# VH: B1 VH with H32Y, H65K
# VL: B1 VL with S30H, Y53H
# notes: sacituzumab VL 30, 53 -> H
# B42: MYT12301 (antibody, V domains shown)
# VH: B1 VH with H32Y, G33H, Y60H, H65K
# VL: B1 VL
# notes: sacituzumab VH 33, 60 -> H
# B43: MYT13206 (antibody, V domains shown)
# VH: B1 VH with H32Y
# VL: B1 VL with Q89H
# notes: as for B2
# Legend:
# [1] = target: T1, Human TROP2 Protein, His Tag (Acro …); experiment: BLI (Octet) [1/2]
# [2] = target: T2, Human TROP2 Protein, His Tag (Acro …); experiment: BLI (Octet) [1/2]
# [3] = target: T2, Human TROP2 Protein, His Tag (Acro …); experiment: BLI (Octet)
Binder,binding result [1],other results
B1,binds,
B2,,binding result [2]: binds
B3,binds,
B4,binds,
B5,binds,
B6,,binding result [2]: binds
B7,binds,
B8,,binding result [3]: binds
B9,binds,
B10,binds,
B11,binds,
B12,,binding result [2]: binds
B13,binds,
B14,binds,
B15,binds,
B16,,binding result [3]: binds
B17,,binding result [2]: binds
B18,,binding result [2]: binds
B19,binds,
B20,binds,
B21,,binding result [2]: binds
B22,binds,

Binder,binding result [1],other results
B23,binds,
B24,,binding result [2]: binds
B25,,binding result [2]: binds
B26,,binding result [2]: binds
B27,,binding result [3]: binds
B28,,binding result [3]: binds
B29,,binding result [2]: binds
B30,binds,
B31,binds,
B32,binds,
B33,binds,
B34,binds,
B35,binds,
B36,binds,
B37,binds,
B38,binds,
B39,binds,
B40,binds,
B41,binds,
B42,binds,
B43,,binding result [2]: binds
